B1: human platelet factor 4 (natural protein)
chain: EAEEDGDLQCLCVKTTSQVRPRHITSLEVIKAGPHCPTAQLIATLKNGRKICLDLQAPLYKKIIKKLLES
B2: human platelet factor 4 (natural protein)
chain: EAEEDGDLQCLCVKTTSQVRPRHITSLEVIKAGPHCPTAQLIATLKNGRKICLDLQAPLYKKIIKKLLES
modifications: wild-type capsid; copies by convention for the Ad5 virion; hexon is the PF4-binding protein; internal proteins IIIa, VI and VIII left out; Y477 is the fiber residue of the paper (AAQ19310.1)

Experiments:
[1] = target: T1, adenovirus type 13 vector particles (human adenovirus type 13); assay: SPR; electrostatic (fast) component of one-to-two model
[2] = target: T2, adenovirus type 11 vector particles (human adenovirus type 11); assay: as above
[3] = target: T1, adenovirus type 13 vector particles; assay: SPR; hydrophobic (slow) component of one-to-two model
[4] = target: T2, adenovirus type 11 vector particles; assay: as above
[5] = target: T3, adenovirus type 5 vector particles (wild-type capsid) (human adenovirus type 5); assay: as above
[6] = target: T3, adenovirus type 5 vector particles …; assay: as above; remark: listed apart in the source
[7] = target: T3, adenovirus type 5 vector particles …; assay: SPR; electrostatic (fast) component of one-to-two model

Row | Binder | Kd [1] [nM] | koff [1] [s⁻¹] | Kd [2] [nM] | koff [2] [s⁻¹] | Kd [3] [nM] | koff [3] [s⁻¹] | Kd [4] [nM] | koff [4] [s⁻¹] | Kd [5] [nM] | koff [6] [s⁻¹] | koff [7] [s⁻¹]
1 | B1 | 774 | 0.00761 | 742 | 0.00879 | 12.9 | 0.000363 | 13.4 | 0.000482 |  |  | 
2 | B2 |  |  |  |  |  |  |  |  | 24.4 | 0.00083 | 0.0124
